According to patent US20210292423A1 (published 2021):
One block for each binder: values may come before it.

Experiments:
[1] = biological target: T1, Macaca fascicularis CD123 Fc-fusion protein (Macaca fascicularis); experiment: SPR Proteon XPR36, rat IgG captured, CD123-Fc analyte
T1 construct: also called cyno CD123-Fc
Method: (§1) Screening of anti-CD123 rat IgGs for binding affinities to human CD123 and cross-reactivities to cyno CD123 was performed with hybridoma supernatants using a Proteon XPR36 (Biorad) in a one-shot kinetics approach. A capture assay was established using a goat anti-rat IgG (112-005-071, Jackson Immuno Research). The capture antibody was coated on GLC chips (176-5011, Biorad) to approx. 8000 RU in the vertical direction using the amine coupling kit (176-2410, Biorad). […] Binding kinetics with human and cyno CD123-Fc fusion protein was measured at 100 μl/min in the horizontal direction with 120 sec. and 600 sec. for association and dissociation, respectively. The CD123-Fc proteins were used in twofold dilutions from 6 nM to 100 nM. PBSET buffer (176-2730, Biorad) was used as assay buffer. Regeneration was achieved by injection of 10 mM Glycine buffer pH 1.5 for 18 sec at 30 μl/min. Data processing and analysis was performed using ProteonManager software v3.0. Fitting of the sensorgrams was done with a 1:1 Langmuir model.

[2] = biological target: T2, human CD123 Strep-II tagged Fc-fusion protein (human); experiment: as above
T2 construct: also called human CD123-Fc; recombinant CD123
Method: as §1

[3] = biological target: T3, human CD123 (IL3RA) on cells (human, UniProt P26951 19-378); experiment: flow cytometry, CD123 transfected HEK293, hybridoma supernatant
T3 construct: also called CD123 transfected HEK293; THP-1
Method: Cells were resuspended in 200 μl Stain Buffer with FBS per well and were measured using the MACSQuant (Miltenyi Biotec) or LSRII (BD) flow cytometer. Further data analyses were performed using the FlowJo software (Tree Star, Inc.). Read out was percentage of cells positive for antibody binding. Cells treated only with the secondary but no primary antibody were used to set the gates. Curves were calculated by XLfit (Algorithm 205).

T1 sequence (chain, as listed by the source limits assumed): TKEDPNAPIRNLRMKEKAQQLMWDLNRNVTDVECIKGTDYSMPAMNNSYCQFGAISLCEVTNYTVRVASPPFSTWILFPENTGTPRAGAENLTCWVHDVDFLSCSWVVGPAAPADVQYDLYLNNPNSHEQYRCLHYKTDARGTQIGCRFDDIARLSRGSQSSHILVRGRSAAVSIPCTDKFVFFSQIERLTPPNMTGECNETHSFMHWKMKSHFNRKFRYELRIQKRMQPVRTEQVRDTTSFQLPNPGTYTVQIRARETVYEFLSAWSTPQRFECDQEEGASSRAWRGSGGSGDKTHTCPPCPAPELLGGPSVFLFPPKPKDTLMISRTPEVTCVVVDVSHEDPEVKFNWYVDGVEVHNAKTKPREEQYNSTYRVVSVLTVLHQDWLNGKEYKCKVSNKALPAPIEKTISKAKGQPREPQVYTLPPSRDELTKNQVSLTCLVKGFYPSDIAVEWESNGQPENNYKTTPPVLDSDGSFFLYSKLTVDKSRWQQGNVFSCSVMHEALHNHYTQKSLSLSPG
T2 sequence (chain, as listed by the source limits assumed): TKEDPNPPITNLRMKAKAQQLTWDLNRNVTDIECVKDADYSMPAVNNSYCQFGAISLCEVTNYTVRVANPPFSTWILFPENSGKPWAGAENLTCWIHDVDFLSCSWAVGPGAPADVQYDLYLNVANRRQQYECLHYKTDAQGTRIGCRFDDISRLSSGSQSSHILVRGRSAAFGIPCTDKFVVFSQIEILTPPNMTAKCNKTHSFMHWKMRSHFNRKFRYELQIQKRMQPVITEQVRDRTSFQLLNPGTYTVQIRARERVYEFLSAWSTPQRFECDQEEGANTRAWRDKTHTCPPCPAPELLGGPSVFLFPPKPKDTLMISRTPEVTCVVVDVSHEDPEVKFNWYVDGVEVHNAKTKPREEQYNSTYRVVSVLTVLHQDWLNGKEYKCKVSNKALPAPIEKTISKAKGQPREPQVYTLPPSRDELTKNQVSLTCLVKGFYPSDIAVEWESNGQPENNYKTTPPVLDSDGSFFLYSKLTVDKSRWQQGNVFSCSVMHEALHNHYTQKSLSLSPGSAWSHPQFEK
T3 sequence (P26951 19-378): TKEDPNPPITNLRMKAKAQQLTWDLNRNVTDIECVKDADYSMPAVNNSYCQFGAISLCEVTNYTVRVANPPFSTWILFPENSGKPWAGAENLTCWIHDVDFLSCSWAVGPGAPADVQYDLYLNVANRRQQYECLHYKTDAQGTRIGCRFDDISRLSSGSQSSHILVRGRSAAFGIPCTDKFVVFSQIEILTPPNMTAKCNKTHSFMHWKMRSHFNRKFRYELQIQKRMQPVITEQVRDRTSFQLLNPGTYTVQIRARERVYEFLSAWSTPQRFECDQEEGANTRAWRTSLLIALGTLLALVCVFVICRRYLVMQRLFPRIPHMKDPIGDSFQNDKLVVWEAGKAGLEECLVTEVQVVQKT

B4: 2F8-D6 anti-CD123 rat IgG (hybridoma supernatant) (antibody, V domains shown)
VH: QVQLKESGPGLVQPSQTLSLTCTVSGFSLTSYGVSWVRQPPGKGLEWIATISSAGSTYYDLVLKSRLSITRDTSKSQVFLKVHSLQTEDTAIYLCARDAPVFNYGSYNAMDSWGQGTSVTVSS
VL: DIQMTQSPSFLSATVGDRVTINCKASQNINKYLNWYQQKLGEAPKRLIYNTNSLQTGIPSRFSGSGSGTDYTLTISSLQPEDVATYFCLQHKSGLTFGSGTKLEIK
notes: rat IgG; also called BFX - 2F8
Kd [1]: 0.51 nM
Kd [2]: 0.53 nM
koff [2]: 6.6e-05 s⁻¹
kon [2]: 130000 M⁻¹ s⁻¹
EC50 [3]: 3.4 ng/mL

B6: 6C10-C4 anti-CD123 rat IgG (hybridoma supernatant) (antibody, V domains shown)
VH: EVKLQESGPSLVQPSETLSLTCTVSGFSLTSYSVHWVRQHSGKSLEWMGRMWNDGDTSYNSAFTSRLSISRDTSKGQVFLKMNSLQTEDTGTYYCARGHRTPFDYWGQGVMVTVSS
VL: DIVMTQSPSSLAVSAGETVTINCKSSQSFLSSGDERNYVAWYQHKPGQSPKLLIYWASTRHSGVPDRFIGSGSGTDFTLTISSVQAEDLAIYYCQQYYDTPLTFGSGTKLEIK
notes: rat IgG; also called BFX - 6C10
Kd [1]: 0.79 nM
Kd [2]: 0.75 nM
koff [2]: 0.00014 s⁻¹
kon [2]: 180000 M⁻¹ s⁻¹
EC50 [3]: 6.1 ng/mL

B7: 2B8-F3 anti-CD123 rat IgG (hybridoma supernatant) (antibody, V domains shown)
VH: EVQLVESGGGLVQPGRSLKLSCAASGFTFSDYNMAWVRQAPKKGLEWVATILYDGGRTYYRGSVKGRFTISRDNAKSTLYLRMDSLRSEDTATYYCATHSRGTDYFDYWGQGVMVTVSS
VL: EIVLTQSPTSMTASPGEQVTITCRASSSINYMHWYQQKPGASPRPWIYETSKLASGVPDRFSGSASGTSYSLTINNMEAEDAATYYCQQWNYPSWTFGGGTKLELK
notes: rat IgG; also called BFX - 2B8
Kd [1]: 0.77 nM
Kd [2]: 0.018 nM
koff [2]: 1.2e-05 s⁻¹
kon [2]: 660000 M⁻¹ s⁻¹
EC50 [3]: 5.5 ng/mL

These reach a lower Kd [1]. Values come first.

Kd [1]: 0.1 nM
Kd [2]: 0.15 nM
koff [2]: 1.5e-05 s⁻¹
kon [2]: 230000 M⁻¹ s⁻¹
EC50 [3]: 5 ng/mL
B1: 6B10-E4 anti-CD123 rat IgG (hybridoma supernatant) (antibody, V domains shown)
VH: EVQLVESGGGLVQPGRSLKLSCAASGFTFSHYNMAWVRQAPKKGLEWVATITYDDHSTYYRDSVKGRFTISRDTAKSTLYLQMDSLRSEDTATYYCARLVNYAFAYWGQGTLVTVSS
VL: NIVMTQSPKSMSISVGDRVTMNCKASQTVGNNIAWYQQKPGLSPQLLIDYASNRYTGVPNRFTGGGYGTDFILTINSVQAEDAAFYYCQRMYNSPTFGGGTKLELK
notes: rat IgG; also called BFX - 6B10

Kd [1]: 0.1 nM
Kd [2]: 0.01 nM
koff [2]: 6.2e-06 s⁻¹
kon [2]: 470000 M⁻¹ s⁻¹
EC50 [3]: 0.4 ng/mL
B2: 8B11-B7 anti-CD123 rat IgG (hybridoma supernatant) (antibody, V domains shown)
VH: QVQLQESGPTLVNPGDSVKMSCKASGYTFTDHIIHWVKQSHGKSLEWIGYINPYSGGANYNGKFKSKATLTIDKSSSTAYMEFSRLTSGDSAIYYCALNYGSYYAMDAWGQGTSVTVSS
VL: DIQMTQSPASLSASLGETVTIECRTSKDIYSNLAWFQQEPGNSPQLLIYDASNLADGVPSRFSGSGSGTQYSLQINNLQSEDVASYFCHQYNNYPYTFGTGTKLELK
notes: rat IgG; also called BFX - 8B11

Kd [1]: 0.12 nM
Kd [2]: 0.4 nM
koff [2]: 6.4e-05 s⁻¹
kon [2]: 160000 M⁻¹ s⁻¹
EC50 [3]: 2 ng/mL
B3: 3E3-D3 anti-CD123 rat IgG (hybridoma supernatant) (antibody, V domains shown)
VH: QVQLQESGPGLVQPSQTLSLTCTVSGFSLTTYDVHWVRQPPGKGLEWMGRIQNGGITDYNSALKSRLIISRDTSKSQVFLKMNSVQTEDTAMYFCAKTGSYFYAFDHWGQGTLVTVSS
VL: QFVLTQPNSVSTNLGSTVKLSCKRNTGNIGSNYVNWYQQHEGRSPTTMIYRDDKRPDGVPDRFSGSIDRSSNSALLTINNVQTEDEADYFCQSYSSGINIIFGGGTKLTVL
notes: rat IgG; also called BFX - 3E3

Kd [1]: 0.05 nM
Kd [2]: 1.1 nM
koff [2]: 0.00012 s⁻¹
kon [2]: 130000 M⁻¹ s⁻¹
EC50 [3]: 10.1 ng/mL
B5: 5A5-B4 anti-CD123 rat IgG (hybridoma supernatant) (antibody, V domains shown)
VH: QIQIVQSGSDVTSTCNGCGTCYFSGFSLSTTGICVSWIRQPSGKGQEWLADFCWDDGKGYNPSLKNRLSISKDTSNNQVFLKITSVDTADTATYYCARRRVYYGIYFDYWGQGVMVTVSS
VL: DIVMTQSPALAVSPGERVSISCRASNSVSTRMHWYQQKPGQQPKLLIYGASNLESGVPARFSGSGSGTDFTLTIDPVEADDIATYFCQQSWNDPLTFGSGTKLEIK
notes: rat IgG; also called BFX - 5A5
